{"source": "IntAct's records for PubMed 19696444", "parents": {"B1": {"name": "Anosmin-1 (Homo sapiens), P23352 (parent)", "chain": "MVPGVPGAVLTLCLWLAASSGCLAAGPGAAAARRLDESLSAGSVQRARCASRCLSLQITRISAFFQHFQNNGSLVWCQNHKQCSKCLEPCKESGDLRKHQCQSFCEPLFPKKSYECLTSCEFLKYILLVKQGDCPAPEKASGFAAACVESCEVDNECSGVKKCCSNGCGHTCQVPKTLYKGVPLKPRKELRFTELQSGQLEVKWSSKFNISIEPVIYVVQRRWNYGIHPSEDDATHWQTVAQTTDERVQLTDIRPSRWYQFRVAAVNVHGTRGFTAPSKHFRSSKDPSAPPAPANLRLANSTVNSDGSVTVTIVWDLPEEPDIPVHHYKVFWSWMVSSKSLVPTKKKRRKTTDGFQNSVILEKLQPDCDYVVELQAITYWGQTRLKSAKVSLHFTSTHATNNKEQLVKTRKGGIQTQLPFQRRRPTRPLEVGAPFYQDGQLQVKVYWKKTEDPTVNRYHVRWFPEACAHNRTTGSEASSGMTHENYIILQDLSFSCKYKVTVQPIRPKSHSKAEAVFFTTPPCSALKGKSHKPVGCLGEAGHVLSKVLAKPENLSASFIVQDVNITGHFSWKMAKANLYQPMTGFQVTWAEVTTESRQNSLPNSIISQSQILPSDHYVLTVPNLRPSTLYRLEVQVLTPGGEGPATIKTFRTPELPPSSAHRSHLKHRHPHHYKPSPERY"}}}
{"variants_of": "B1", "conditions": "with fgfr1_human FGFR1, P11362"}
{"variant": "N267K", "effect of a mutation on the interaction": "disrupting interaction"}
